Source: patent US20140356345

T1: 33-mer gliadin peptide
T1 sequence: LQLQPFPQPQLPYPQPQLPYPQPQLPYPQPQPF

T2: 33-mer gliadin peptide
T2 chain: T1 sequence

B1: endopep-40 (protein)
chain: MSRRVTGTILGGLILAMVPFLSTAANAAPQAAPASVSHPFHHSCATVKPGRASCNALVRSDIAQSAATLAHQAAAPSGLSPANLQSAYKLPSSTAGSGQTVAIVDAYDAPTAEADLNVYRSQFGLGACTTANGCFKKVDQNGGTSYPRKDGGWAQEISLDLDMVSAVCPNCKIVLVEAKTNSFANLGTAENTAASLANVISNSYGGSDASDASYGSYYNHPGKAITVSSGDAGYGVEYPASSHYVTAVGGTSLRTASTSRGWSETAWSGAGSGCSAYNTALSGQSGLTGCSRRAVADVSAVADPATGVAVYDSTAYQGQSGWMVFGGTSVAAPIIGGVYGLAANAASIDNNYPYAHTSSLFDVTSGSNGTCTTTKWCTAGTGWDGPTGLGTPNGTGAF
B2: endopep-140 (protein)
chain: MPDLPTQRRSPRRSRRPAVLARLAGLRVGALVLALAVTTLTLISMPSANAAPAKPVVPHAKASSPTAQGQHPTSRVCRTPGRANEMTCLAMVRDDVIGPKGVQANDAPAGFGPADLLNAYNLPSAGSTETVAIVDAFDNPNAEADLGVYRQQYGLPACTTANGCFKKIDQRGGTSYPPPDAGWAGEIALDIDMVSAICPTCKILLVEADDNYMDNLGTAVNQAVSQGAKFVSNSYGGSEGSDEGQADDAYFHHDGVAITASSGDSGYGASYPAASPYVTSVGGTSLAKDTSSSRGWTESTWNGAGSGCSAYETKPSFQKDTGCARRTIADVSAVADPNTGVAVYNGGWHVYGGTSVSAPIIASVYALGGAPAAGSAPNSFPYDHPADLNDVTSGSNGSCSPAYLCTAGTGYDGPTGLGTPNGIAAFRSGPHAVVTGTVTDGTAPLASAQVKAGDVTATTDGQGHYTLSVPPGTYDVSASKFGYTGKTISGVQVADGQTVTEDFALTAKARVDVSGLVRDGSGHGWPVYATVRVKDQPTAVAYTDPKTGRYTLSLPTDDTYTLQVDPLYPGYTQDSHDVTVTSADVVHDVNVAVDQTTCSAPGYSYHYAGATQPFDGTTAPAGWTVDDKVGNGQTWVFNDPGSRGNKTGGTGGFAVIDSDHYGSGNTQDSTLFSPVTDFSARTHPILSFRSDWYGYTGQAGDLDLSVDGGTTWTNLKHYTASERGPRTETMDLSAAAGKSAVQVRFHFTGKFGYYWQVDDVFLGDRTCDPTSGGLVVGQVTDANTGAGVAGATVTSVDRPAEHATSAATPDDPNLGDGLFWMFSSVTGSHKFTATAGNYDSHDVTVNVAANWATAADIALSAPRLTVTPGAISKTVGWQKAATAALTLKNTGTSPVTAKIGEQPGGSTTATAGAPLQRVKGDFASGRLQQGKASGAKAGVTPYAPPWTAIADYASPIMDNGAVALNGKIYSVAGVDGANVLNKAYAYDPGTQAWTAIAPLATGREAPQATTTGGKLYVTGGWGSTGAAVAKTEIFDPSSGAWSAGADNPKPYAGSGAAVLDGKIYVVGGCLATCGTKDVQVYDPAANSWSSGPAYPENTAWLGCAGIDGKLYCAGGSAAASTKHGYVLDPASGTWSPIADLPIDLWAMGYSAANGKLIVSGGVTNGASTLTNQGFAYDPSANSWTALPNSNNALYRGASACGFYKIGGSLGQFNAVKSGEVLPGYDQCASTADVPWLSEDKTEVTIQPGQSVKVNVTLDANVPAITQPGTYTAQLTVGAKTPYAIPPVAVTMTVNPPGTWGKITGTLTGAGCTGSPAPLTGATLQIDSWAASYTLKTDKNGQYALWLDVRNNPLTLIAAKDGWAPQTRNVKITKLTSTTADFTLKPDHTCS

Tests used:
[1] = system: T1, 33-mer gliadin peptide
[2] = target: gliadin (Sigma G3375)
[3] = target: T2, 33-mer gliadin peptide

| Molecule | residual intact 33-mer (1-33) by HPLC-MS, Control T2h (pepsin alone, 1 mg/ml), pH 3 [1] [% residual] | proteolysis of gliadin, SDS-PAGE, 5 uU enzyme, pH 3, 37 C [2] | 33-mer disappearance by HPLC-MS, 9 uU enzyme, 2 h, pH 3 [3] | residual intact 33-mer (1-33) by HPLC-MS, T0 [3] [% residual] | residual intact 33-mer (1-33) by HPLC-MS, T30 + pepsin (1 mg/ml), 2 uU enzyme, pH 3 [3] [% residual] | residual intact 33-mer (1-33) by HPLC-MS, T30, 2 uU enzyme, pH 3 [3] [% residual] | residual intact 33-mer (1-33) by HPLC-MS, T2h + pepsin (1 mg/ml), 2 uU enzyme, pH 3 [3] [% residual] | residual intact 33-mer (1-33) by HPLC-MS, T2h, 2 uU enzyme, pH 3 [3] [% residual] | 33-mer disappearance by HPLC-MS, 8 uU enzyme, 2 h, pH 3 [3] | residual intact 33-mer (1-33) by HPLC-MS, T30 + pepsin (1 mg/ml), 4 uU enzyme, pH 3 [3] [% residual] | residual intact 33-mer (1-33) by HPLC-MS, T30, 4 uU enzyme, pH 3 [3] [% residual] | residual intact 33-mer (1-33) by HPLC-MS, T2h + pepsin (1 mg/ml), 4 uU enzyme, pH 3 [3] [% residual] | residual intact 33-mer (1-33) by HPLC-MS, T2h, 4 uU enzyme, pH 3 [3] [% residual] |
| --- | --- | --- | --- | --- | --- | --- | --- | --- | --- | --- | --- | --- | --- |
| pepsin | 95 |  |  |  |  |  |  |  |  |  |  |  |  |
| B1 |  | cleaved ... into small peptides to almost complete digestion in 2 hours | complete 33-mer disappearance after 2 h at pH 3 (not shown) | 100 | 70 | 50 | 30 | 20 |  |  |  |  |  |
| B2 |  | cleaved ... into small peptides to almost complete digestion in 2 hours |  | 100 |  |  |  |  | complete 33-mer disappearance after 2 h at pH 3 (not shown) | 70 | 50 | 45 | 20 |
